Consider 3 molecules from patent US20130217865A1 (VIVENTIA BIOTECHNOLOGIES, published 2013).

Where no end group is shown, it is not given here. The star is where a group is joined. Biotin = O=C1N[C@H]2[C@H](CS[C@H]2CCCCC(=O)*)N1

B1: VB1-008 monoclonal antibody (antibody, human IgG1, V domains shown)
VH: QVQLQELGPRLVRPSQTLILTCTVSGGSVSGDEYYWSWLRQTPGKGLEWIGYMSYRGSSYYSPSLQSRVTIAVDRSKNEFSLKLTSVTAADAAVYFCARKYCGGDCRSGFDIWGRGTMVTVAS
VL: YELTQPPSVSVSPGQKAFITCSGDNLGNKYVCWYQQKPGQSPVLVIYEDTKRPSGIPERFSASNSGNTATLTISGTQPIDEADYYCQAWDSRTEIFGTGTKVTVLS
notes: also called 17P2/C12
B2: Peptide 1: Biotin-STDRIPATNMD (peptide)
peptide: Biotin-STDRIPATNMD
B3: Negative control peptide: Biotin-AVEDRKPSGLN (peptide)
peptide: Biotin-AVEDRKPSGLN

Test [1] addresses T1, Peptide 3: Biotin-ATNMDSSHSIT (human).
T1 peptide: Biotin-ATNMDSSHSIT
The experiment in a line: ELISA on peptide-coated plates, 75 µg/mL VB1-008. (In general: An ELISA detects its analyte on a solid surface through an enzyme-linked reagent.)
Description: (§1) Peptide solutions were diluted 1-in-100 with Hank's buffered saline solution (HBSS) containing 0.5% formaldehyde. 10Q̂iL of diluted peptide solution was distributed to each well in a 96-well plate. The plates were incubated at room temperature for 1 hour. The supernatant was removed and the plates were placed uncovered in a 37° C. incubator for 16-18 hours. The peptide-coated plates were placed in plastic bags and stored at 2-8° C. until required.
(§2) The plates were washed as previously described with the wash buffer (PBS containing 0.5% Tween 20). The plates were incubated with 1:6000 dilution of anti-human IgG-HRP for one hour at room temperature. The plates were washed as previously described. 100 μL of TMB substrate (TMB peroxidase substrate KPL cat #50-76-00) was added to each well and incubated for 5-10 minutes in the dark. The reaction was terminated by adding 100 μL of 1M phosphoric acid to each well. The optical density was measured at 450 nm using an ELISA plate reader.

The target in test [2] is B2. In words: ELISA on peptide-coated plates.
Description: as §1
(§3) Following overnight incubation of the peptide-coated plates, 300 μL of wash buffer (PBS containing 0.5% Tween20) was manually added to each plate, with the help of a repeator pipette equipped with an 8-channel adaptor. The contents of the plates were discarded; the plates were inverted and patted on 3-4 inches of paper towel to remove excess liquid. The above steps were repeated two more times.
as §2
Test [3] has as its target B3. The experiment in a line: ELISA on peptide-coated plates.
Description: as §1, §3, §2
The target in test [4] is B1. The experiment in a line: peptide competition, flow cytometry on MDA-MB-435S cells. Background: A flow cytometer gives signals particle by particle.

On to B1, for which the binding result is given as “binds” in test [1], “no binding (tested: 75 µg/mL VB1-008)” in test [2] and “no binding (tested: 75 µg/mL VB1-008)” in test [3].

As for B2, the binding result in test [4] is “no binding”.

Take B3: the binding result in test [4] is listed as “no binding”.
